In article PMC7141649:

Target: actin (coated on the BLI biosensor)
Assay: BLI; Octet RED, 25°C; APS biosensor coated with actin; rWLP (1 mM) in PBS pH 7.4 with 0.05% Tween 20 and 0.1% BSA; 300 s association, 120 s dissociation

Kd: 193 nM
Substance: recombinant whirlin-like protein (as used in biolayer interferometry) (natural protein)
